# In PMC5931632, “A multi-antigenic MVA vaccine increases efficacy of combination chemotherapy against Mycobacterium tuberculosis” (PLoS ONE, 2018):
# B1: TB10.4 (natural protein)
# chain: MSQIMYNYPAMLGHAGDMAGYAGTLQSLGAEIAVEQAALQSAWQGDTGITYQAWQAQWNQAMEDLVRAYHAMSSTHEANTMAMMARDTAEAAKWGG
# notes: also called Rv0288
# Biological target: T1, Rv0287 (Mycobacterium tuberculosis, UniProt O53692 1-97)
# T1 sequence: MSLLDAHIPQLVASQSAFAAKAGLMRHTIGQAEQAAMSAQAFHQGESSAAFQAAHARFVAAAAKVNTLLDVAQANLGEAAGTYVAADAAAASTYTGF
# Assay: pull-down
# Settings: both partners purified
binder,measurement,value
B1,binding result,binds
